Assay results from patent US20220296736A1, “ADMINISTRATION OF THERAPEUTIC AGENTS TO BRAIN AND OTHER CELLS AND TISSUE” (priority 2019, published 2022).

Tests used:
[1] = mouse, in vivo
Protocol: In the first step, we conjugated BV with DFO chelator and characterized resulting conjugate by means of its molecular weight and binding to vascular endothelial growth factor (VEGF). […] Next day PET-CT imaging was repeated and animals were sacrificed to perform ex vivo biodistribution of ^89ZrBVDFO.
(§1) All animal procedures were carried out under protocols approved by the Johns Hopkins Animal Care and Use Committee. Under general anesthesia with 1-2% isoflurane a catheter was placed in internal carotid artery of C3HeB/FeJ (Jackson, stock No. 000658), male, 6-8 weeks old mice, as we described previously (22) and animal was transferred to the PET-CT scanner. […] A CT scan (512 projections) was performed after dynamic scan for anatomical co-registration. PET/CT imaging was repeated around 24 h post infusion. PET data were reconstructed using the two-dimensional ordered subsets-expectation maximization algorithm (2D-OSEM) and corrected for dead time and radioactive decay. Presented whole body images were generated using Amira® (FEI, Hillsboro, Oreg.) and dynamic scans (brain and heart radioactivity accumulation) and radioactivity distribution in different brain regions were analyzed with PMOD 4.3 (PMOD Technologies LLC, Zurich, Switzerland).

[2] = mouse, in vivo; remark: listed apart in the source
Protocol: In the first step, we conjugated BV with DFO chelator and characterized resulting conjugate by means of its molecular weight and binding to vascular endothelial growth factor (VEGF).
as §1

[3] = mouse, in vivo, iv; cited from earlier work
[4] = human, in vivo, iv; cited from earlier work
[5] = Safety of IA mannitol-induced BBBO in the cortex (MRI and GFAP/IBA1 histology); format: in vivo, SCID mice
Protocol: Once cortical perfusion has been confirmed, 25% mannitol mixed with Gd (50:1) was infused until enhancement indicating BBB breach has been achieved (up to three bolus injections 1-2 min each; interval between infusions is 30 s). For detailed assessment of the BBB status, high resolution T1-weighted scan was collected after mannitol infusion. Three and seven days after OBBBO, the safety of the procedure was evaluated by MRI and then animals were sacrificed for further histological assessment.
For histological evaluation on the safety of OBBBO in the cortex, 7 days after surgery, animals (n=4) were anesthetized and perfused transcardially with 5% sucrose, followed by 4% paraformaldehyde (PFA). The brains were rapidly removed and post-fixed overnight in 4% PFA at 4° C. The brains were cryopreserved in 30% sucrose and 30-μm thick coronal sections were cryosectioned. Immunohistochemistry for anti-GFAP (1:250, Dako) and anti-Iba1 (1:250, Wako) was performed to assess the neuroinflammation. The secondary antibody was goat anti-rabbit (Alexa Fluor-488, 1:200, Molecular Probes). […] All the fluorescent images were acquired using an inverted microscope (Zeiss, Axio Observer Z1).
Data is expressed as mean±SD unless otherwise specified. Quantitation of immunohistochemistry was based on relative fluorescence using Image J and analyzed using a paired t-test. The ratio of ipsi-/contralateral was analyzed using an unpaired t-test. The MRI analysis of the change in area of the Gd perfusion territory and Gd-enhancement for each mouse was calculated using a custom-written script in MATLAB and analyzed using a paired t-test. A p-value less than 0.05 was considered significant.

[6] = Histological assessment of BV biodistribution and extravasation; format: in vivo, SCID mice; conditions: for localisation in brain tissue: one hour after delivery
Protocol: For histological evaluation on the safety of OBBBO in the cortex, 7 days after surgery, animals (n=4) were anesthetized and perfused transcardially with 5% sucrose, followed by 4% paraformaldehyde (PFA). The brains were rapidly removed and post-fixed overnight in 4% PFA at 4° C. The brains were cryopreserved in 30% sucrose and 30-μm thick coronal sections were cryosectioned. Immunohistochemistry for anti-GFAP (1:250, Dako) and anti-Iba1 (1:250, Wako) was performed to assess the neuroinflammation. The secondary antibody was goat anti-rabbit (Alexa Fluor-488, 1:200, Molecular Probes). For detecting the biodistribution of infused BV, the mice with OBBBO (n=4) and without OBBBO (n=3) were sacrificed 1 hour after administration. The brains were cryosectioned at 30 μm and the slices were stained with goat anti-human secondary antibody (Alexa Fluor-488, 1:200, Invitrogen). All the fluorescent images were acquired using an inverted microscope (Zeiss, Axio Observer Z1).
A p-value less than 0.05 was considered significant.

recombinant human VEGF-A = assay: Functional binding assay of BV and BVDFO to VEGF (Bevacizumab ELISA); conditions: unmodified BV versus BVDFO conjugate
Protocol: The ELISA assay devoted for assessment of bevacizumab concentration has been used to assess the binding capacity of unmodified BV and BVDFO conjugate. The assay was carried out using Bevacizumab ELISA (ImmunoGuide, Eagle Bioscience) according to the manufacturer protocol. Briefly, 100 μg/mL, 50 μg/mL, 25 μg/mL of BV and BVDFO, as well as the provided standards were diluted 1:1000, and pipetted in 6 repetitions into the wells of the microtiter plate coated with recombinant human VEGF-A. Plate was incubated for 60 min in the room temperature and washed 3× with buffer. Next, horseradish peroxidase (HRP) conjugated anti-human IgG monoclonal antibody was added to each well, and incubated in room temperature for 30 min. Plate was washed 3× with the buffer and ready-to-use TMB substrate solution was added to each well. After 15 min incubation in dark, stop solution was added to each well and the color change from blue to yellow was observed. The absorbance at 450 nm was read using Victor 3 plate reader (Perkin Elmer) within 10 min after addition of the stop solution and expressed as optical density (OD).

[7] = Intravital 2PM visualization of cortical BBBO and drug extravasation; format: in vivo, SCID mice; conditions: IA infusion with 25% mannitol; 7 ROIs
Protocol: Before microscopy, isoflurane anesthetized mice (n=5) with cranial window and with arterial access as described above were stabilized in a custom-made frame immobilizing their head. The mice were positioned under an epi-fluorescent microscope and a 10× magnification objective was used for capturing images at frequency of 1-2 Hz. Saline solution of 0.001 mM rhodamine (0.58 kDa) was injected using a syringe infusion pump at the rate of 0.15 ml/min over 1 min via the ICA microcatheter to visualize trans-catheter perfusion. When the cortex was not perfused, the cCCA was closed temporarily for 20 s by engaging the weights.
For 2PM to visualize OBBBO and drug penetration, mice were placed under a multiphoton microscope (FV1000MPE, Olympus, Tokyo, Japan). A 10× objective (UPlanSApo, 0.40 NA and 3.1 mm working distance) was centered over the cranial window and used to collect time series images of 800×800 pixels (1.59 μm/pixel; 2 μs/pixel; 100 frames) at an estimated depth of 150 um below the cortical surface. Rhodamine (0.002 mM) mixed with BV-FITC (0.01 mM) was injected prior to OBBBO to collect baseline data and optimize cortical perfusion (temporary cCCA closure). Then, 25% mannitol mixed with rhodamine and BV-FITC was delivered at the rate of 0.15 ml/min for 4 mins in total. […]

Chain of recombinant human VEGF-A (P15692 207-320 limits assumed): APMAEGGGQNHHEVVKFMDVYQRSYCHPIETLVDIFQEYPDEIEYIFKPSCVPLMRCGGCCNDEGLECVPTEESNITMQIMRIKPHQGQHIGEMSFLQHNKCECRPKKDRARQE

Molecule: 89ZrBVDFO: bevacizumab conjugated with on average 3 molecules of DFO chelator and radiolabeled with 89Zr
- radioactivity accumulation in contralateral hemisphere [1]: no radioactivity accumulation
- signal in the contralateral hemisphere [1]: negligible signal
- radioactivity in the entire brain ([1]; iv): 2.91 % ID/cc
- clearance from the brain compared with 89ZrNB(DFO)2 [2]: slower
- accumulation in the brain and tumors [3]: no accumulation
- uptake in diffuse intrinsic pontine glioma [4]: some uptake in five out of seven patients

Molecule: OC[C@@H](O)[C@@H](O)[C@H](O)[C@H](O)CO [mannitol]
- brain damage after cortical BBBO induction (MRI and histology) ([5]; 3 and 7 days after BBBO): did not cause brain damage
- astrocytic or microglial activation in the BBBO region (GFAP and IBA-1 staining) ([5]; 7 days post BBBO, ipsilateral versus contralateral): no evidence of astrocytic or microglial activation
- brain damage after excessive exposure (T2 hyperintensity) ([5]; continuous 4 min-infusion): led to brain damage

Molecule: BV: AVASTIN (BV, Roche), bevacizumab, antibody binding VEGF
- localisation in brain tissue ([6]; IA delivery with OBBBO): both blood vessels and parenchyma
- localisation in brain tissue ([6]; IA delivery with intact BBB (BBBI)): localized within the blood vessels
- uptake in ipsilateral vs. contralateral hemisphere (fluorescence intensity) ([6]; both groups (BBBI and OBBBO)): significantly higher uptake

Molecule: BVDFO: bevacizumab conjugated with p-SCN-Bn-DFO chelator
- binding to VEGF (recombinant human VEGF-A): did not affect its targeting properties

Molecule: rhodamine
- extravasation upon BBBO compared to BV-FITC (2PM fluorescence intensity) [7]: earlier onset and higher intensity of extravasation
